Data set [1] deals with T1, cdMMP‐3 (Homo sapiens, UniProt P08254). Put plainly: Gelatin‐Sepharose bound serum proMMP‐9 activation by cdMMP‐3, zymography. Conditions: 5 μl serum, 0-14.2 nM cdMMP‐3, 3 h, 37 °C, CDG patients n = 5, healthy controls n = 7, Fig. 8. The format is biochemical.
The target in data set [2] is T1, cdMMP‐3. Put plainly: Stepwise activation of proMMP‐9 glycoforms by cdMMP‐3, gelatin zymography. The format is biochemical. The following applies: with galectin‐3 (1/10), Fig. 9B.

T1 sequence (P08254 100-272 limits assumed): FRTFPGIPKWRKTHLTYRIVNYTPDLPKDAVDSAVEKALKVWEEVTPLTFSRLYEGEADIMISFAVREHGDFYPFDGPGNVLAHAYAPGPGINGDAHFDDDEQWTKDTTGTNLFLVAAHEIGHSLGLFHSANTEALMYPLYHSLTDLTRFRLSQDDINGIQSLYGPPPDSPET

B1: proMMP‐9 from CDG patients: serum proMMP‐9 of PMM2‐CDG patients, defective N‐glycosylation (protein, UniProt P14780 20-707, looked up)
pro-form: APRQRQSTLVLFPGDLRTNLTDRQLAEEYLYRYGYTRVAEMRGESKSLGPALLLLQKQLSLPETGELDSATLKAMRTPRCGVPDLGRFQTFEGDLKWHHHNITYWIQNYSEDLPRAVIDDAFARAFALWSAVTPLTFTRVYSRDADIVIQFGVAEHGDGYPFDGKDGLLAHAFPPGPGIQGDAHFDDDELWSLGKGVVVPTRFGNADGAACHFPFIFEGRSYSACTTDGRSDGLPWCSTTANYDTDDRFGFCPSERLYTQDGNADGKPCQFPFIFQGQSYSACTTDGRSDGYRWCATTANYDRDKLFGFCPTRADSTVMGGNSAGELCVFPFTFLGKEYSTCTSEGRGDGRLWCATTSNFDSDKKWGFCPDQGYSLFLVAAHEFGHALGLDHSSVPEALMYPMYRFTEGPPLHKDDVNGIRHLYGPRPEPEPRPPTTTTPQPTAPPTVCPTGPPTVHPSERPTAGPTGPPSAGPTGPPTAGPSTATTVPLSPVDDACNVNIFDAIAEIGNQLYLFKDGKYWRFSEGRGSRPQGPFLIADKWPALPRKLDSVFEERLSKKLFFFSGRQVWVYTGASVLGPRRLDKLGLGADVAQVTGALRSGRGKMLLFSGRRLWRFDVKAQMVDPRSASEVDRMFPGVPLDTHDVFQYREKAYFCQDRFYWRVSSRSELNQVDQVGYVTYDILQCPED
modifications: pro-form
Turning to B1, the “activation of serum proMMP‐9 by MMP‐3” value with cdMMP‐3 [1] is listed as “significantly faster activation”.

B2: recombinant proMMP‐9: recombinant full‐length human proMMP‐9 expressed in Sf‐9 insect cells (protein, UniProt P14780 20-707, looked up)
pro-form: B1 pro-form
modifications: pro-form
On to B2, for which the “conversion into active form on overnight incubation with cdMMP‐3 and galectin‐3” value with cdMMP‐3 [2] is on record as “fully converted into its active form”.

The record behind these values is PMC7379967 (The Febs Journal, 2018).
